Source: US20240376200A1 (Seagen, published 2024)
Changes are numbered by the printed parent chain. In names and notes the source's numbering stands.

T1: Coil 10 heavy chain peptide for CD studies (VelB L24I)
T1 construct: also called Coil 10 (L24I); L24I VelB variant
T1 peptide: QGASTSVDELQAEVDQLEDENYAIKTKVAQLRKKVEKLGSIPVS

B1: Vel-IPV-hB6H12.3 Coil 152 (antibody, part only; not given: hB6H12.3 heavy and light chains, part only)
heavy, part: QGASTSVDELQAEVDQLEDENYAHKTKVAQLRKKVEKLGSIPVSLRSG
light, part: QGASTTVAQLEEKVKTLRAENYELKSEAQREEEQVAQLGSIPVSLRSG
B2: Vel-IPV-hB6H12.3 Coil 149 (antibody, part only; not given: hB6H12.3 heavy and light chains, part only)
heavy, part: B1 heavy, part with H24I, V28I
light, part: B1 light, part with L24A, A28V, E31L
B3: Vel-IPV-hB6H12.3 Coil 164 (antibody, part only; not given: hB6H12.3 heavy and light chains, part only)
heavy, part: B1 heavy, part with H24S, L31Q
light, part: B1 light, part with L24R, A28V, E31V
B4: Vel-IPV-Ab1 Coil 134 (antibody, part only; not given: Ab1 heavy and light chains, part only)
heavy, part: B1 heavy, part with H24K
light, part: B1 light, part with L24I, A28V, E31L
B5: Vel-IPV-Ab1 Coil 129 (antibody, part only; not given: Ab1 heavy and light chains, part only)
heavy, part: B1 heavy, part with H24S
light, part: B1 light, part with L24Y, A28V, E31L
B6: Vel-IPV-Ab1 Coil 121 (antibody, part only; not given: Ab1 heavy and light chains, part only)
heavy, part: B1 heavy, part with H24W
light, part: B1 light, part with L24A, A28V, E31L
B7: Vel-IPV-Ab1 Coil 151 (antibody, part only; not given: Ab1 heavy and light chains, part only)
heavy, part: B1 heavy, part with H24L, V28L
light, part: B1 light, part with A28L, E31L
B8: Vel-IPV-Ab1 Coil 126 (antibody, part only; not given: Ab1 heavy and light chains, part only)
heavy, part: B1 heavy, part with H24Y
light, part: B1 light, part with L24S, A28V, E31L
B9: Vel-IPV-Ab1 Coil 116 (antibody, part only; not given: Ab1 heavy and light chains, part only)
heavy, part: B1 heavy, part with H24A
light, part: B1 light, part with L24F, A28V, E31L
B10: Vel-IPV-Ab1 Coil 138 (antibody, part only; not given: Ab1 heavy and light chains, part only)
heavy, part: B1 heavy, part with H24L, V28L
light, part: B1 light, part with A28I, E31L
B11: Vel-IPV-Ab1 Coil 106 (antibody, part only; not given: Ab1 heavy and light chains, part only)
heavy, part: B1 heavy, part with H24Y
light, part: B1 light, part with L24F, A28V, E31L
B12: Vel-IPV-Ab1 Coil 142 (antibody, part only; not given: Ab1 heavy and light chains, part only)
heavy, part: B1 heavy, part with H24L, V28K
light, part: B1 light, part with A28I, E31L
B13: Vel-IPV-Ab1 Coil 117 (antibody, part only; not given: Ab1 heavy and light chains, part only)
heavy, part: B1 heavy, part with H24F
light, part: B1 light, part with L24W, A28V, E31L
B14: Vel-IPV-Ab1 Coil 115 (antibody, part only; not given: Ab1 heavy and light chains, part only)
heavy, part: B1 heavy, part with H24W
light, part: B1 light, part with L24Y, A28V, E31L
B15: Vel-IPV-Ab1 Coil 103 (antibody, part only; not given: Ab1 heavy and light chains, part only)
heavy, part: B1 heavy, part with H24G
light, part: B1 light, part with L24Y, A28V, E31L
B16: Vel-IPV-Ab1 Coil 149 (antibody, part only; not given: Ab1 heavy and light chains, part only)
heavy, part: B1 heavy, part with H24I, V28I
light, part: B1 light, part with L24A, A28V, E31L
B17: Vel-IPV-Ab1 Coil 122 (antibody, part only; not given: Ab1 heavy and light chains, part only)
heavy, part: B1 heavy, part with H24Y
light, part: B1 light, part with L24A, A28V, E31L
B18: Vel-IPV-Ab1 Coil 107 (antibody, part only; not given: Ab1 heavy and light chains, part only)
heavy, part: B1 heavy, part with H24S
light, part: B1 light, part with L24F, A28V, E31L
B19: Vel-IPV-Ab1 Coil 124 (antibody, part only; not given: Ab1 heavy and light chains, part only)
heavy, part: B1 heavy, part with H24S
light, part: B1 light, part with L24W, A28V, E31L
B20: Vel-IPV-Ab1 Coil 137 (antibody, part only; not given: Ab1 heavy and light chains, part only)
heavy, part: B1 heavy, part with H24V
light, part: B1 light, part with A28V, E31L
B21: Vel-IPV-Ab1 Coil 111 (antibody, part only; not given: Ab1 heavy and light chains, part only)
heavy, part: B1 heavy, part with H24G
light, part: B1 light, part with L24F, A28V, E31L
B22: Vel-IPV-Ab1 Coil 114 (antibody, part only; not given: Ab1 heavy and light chains, part only)
heavy, part: B1 heavy, part with H24W
light, part: B1 light, part with L24F, A28V, E31L
B23: Vel-IPV-Ab1 Coil 145 (antibody, part only; not given: Ab1 heavy and light chains, part only)
heavy, part: B1 heavy, part with H24L, V28I
light, part: B1 light, part with L24A, A28V, E31L
B24: Vel-IPV-Ab1 Coil 110 (antibody, part only; not given: Ab1 heavy and light chains, part only)
heavy, part: B1 heavy, part with H24G
light, part: B1 light, part with L24W, A28V, E31L
B25: Vel-IPV-Ab1 Coil 118 (antibody, part only; not given: Ab1 heavy and light chains, part only)
heavy, part: B1 heavy, part with H24F
light, part: B1 light, part with L24S, A28V, E31L
B26: Coil 10 light chain peptide for CD studies (VelA L24A) (peptide)
peptide: QGASTTVAQLEEKVKTLRAENYEAKSEVQRLEEQVAQLGSIPVS
notes: also called Coil 10 (L24A); L24A VelA variant
B27: hB6H12.3 (unmasked anti-CD47 antibody) (antibody, V domains shown)
VH: EVQLLESGGGLVQPGGSLRLSCAASGFTFSGYGMSWVRQAPGKRLEWVATITSGGTYTYYPDSVKGRFTISRDNSKNTLYLQMNSLRAEDTAIYFCARSLAGNAMDYWGQGTLVTVSS
VL: EIVMTQSPDFQSVTPKEKVTLTCRASQTISDYLHWYQQKPDQSPKLLIKFASQSISGVPSRFSGSGSGSDFTLTINSLEAEDAATYYCQNGHGFPRTFGQGTKLEIKR
B28: Vel-IPV-hB6H12.3 (wild-type Vel mask, Coil 1) (antibody, V domains shown)
VH: B27 VH
VL: EIVMTQSPDFQSVTPKEKVTLTCRASQTISDYLHWYQQKPDQSPKLLIKFASQSISGVPSRFSGSGSGSDFTLTINSLEAEDAATYYCQNGHGFPRTFGQGTKLEIK

Target: T2, recombinant human CD47 (human, UniProt Q08722 19-139, limits assumed)
T2 construct: also called recombinant CD47 antigen
Assay: saturation binding ELISA

| Binding Bmax (OD450) | EC50 | EC50 fold change from hB6H12.3 | Binder |
| --- | --- | --- | --- |
| 1.5 OD450 | 31.7 nM | 12 fold | B1 |
| 1.7 OD450 | 298 nM | 117 fold | B2 |
| 1.5 OD450 | 21.5 nM | 8 fold | B3 |

Target: recombinant Antigen 1 (recombinant Ab1 target; recombinant integrin αvβ6 antigen)
Assay: saturation binding ELISA

recombinant Antigen 1 (recombinant Ab1 target; recombinant integrin αvβ6 antigen), sequence (P06756 31-992, chain 1 of 2): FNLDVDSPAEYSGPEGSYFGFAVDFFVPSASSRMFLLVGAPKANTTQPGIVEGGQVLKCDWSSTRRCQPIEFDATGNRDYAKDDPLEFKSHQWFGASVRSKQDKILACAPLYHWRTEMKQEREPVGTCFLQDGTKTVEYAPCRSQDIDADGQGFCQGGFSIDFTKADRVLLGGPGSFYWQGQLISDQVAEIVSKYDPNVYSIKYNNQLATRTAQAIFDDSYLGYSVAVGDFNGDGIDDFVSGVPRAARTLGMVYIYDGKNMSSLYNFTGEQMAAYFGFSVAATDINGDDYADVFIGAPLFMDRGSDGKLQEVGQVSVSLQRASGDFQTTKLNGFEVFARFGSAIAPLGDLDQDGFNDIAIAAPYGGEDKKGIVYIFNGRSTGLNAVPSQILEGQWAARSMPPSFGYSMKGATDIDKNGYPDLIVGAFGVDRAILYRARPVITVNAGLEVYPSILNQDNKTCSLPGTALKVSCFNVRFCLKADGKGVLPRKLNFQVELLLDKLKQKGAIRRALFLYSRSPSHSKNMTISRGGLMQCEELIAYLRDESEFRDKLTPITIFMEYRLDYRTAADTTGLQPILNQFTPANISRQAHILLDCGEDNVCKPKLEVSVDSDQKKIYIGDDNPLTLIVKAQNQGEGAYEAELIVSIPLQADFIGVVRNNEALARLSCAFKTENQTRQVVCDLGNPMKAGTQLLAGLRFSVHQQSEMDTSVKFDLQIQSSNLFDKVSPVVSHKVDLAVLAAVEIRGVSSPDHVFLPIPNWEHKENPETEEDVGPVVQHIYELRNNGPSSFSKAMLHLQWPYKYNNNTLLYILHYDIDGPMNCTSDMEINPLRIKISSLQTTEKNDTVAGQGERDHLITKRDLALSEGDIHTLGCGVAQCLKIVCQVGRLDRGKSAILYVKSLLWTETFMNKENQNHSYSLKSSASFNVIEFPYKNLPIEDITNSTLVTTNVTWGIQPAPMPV
recombinant Antigen 1 (recombinant Ab1 target; recombinant integrin αvβ6 antigen), sequence (P18564 22-709, chain 2 of 2, further chain): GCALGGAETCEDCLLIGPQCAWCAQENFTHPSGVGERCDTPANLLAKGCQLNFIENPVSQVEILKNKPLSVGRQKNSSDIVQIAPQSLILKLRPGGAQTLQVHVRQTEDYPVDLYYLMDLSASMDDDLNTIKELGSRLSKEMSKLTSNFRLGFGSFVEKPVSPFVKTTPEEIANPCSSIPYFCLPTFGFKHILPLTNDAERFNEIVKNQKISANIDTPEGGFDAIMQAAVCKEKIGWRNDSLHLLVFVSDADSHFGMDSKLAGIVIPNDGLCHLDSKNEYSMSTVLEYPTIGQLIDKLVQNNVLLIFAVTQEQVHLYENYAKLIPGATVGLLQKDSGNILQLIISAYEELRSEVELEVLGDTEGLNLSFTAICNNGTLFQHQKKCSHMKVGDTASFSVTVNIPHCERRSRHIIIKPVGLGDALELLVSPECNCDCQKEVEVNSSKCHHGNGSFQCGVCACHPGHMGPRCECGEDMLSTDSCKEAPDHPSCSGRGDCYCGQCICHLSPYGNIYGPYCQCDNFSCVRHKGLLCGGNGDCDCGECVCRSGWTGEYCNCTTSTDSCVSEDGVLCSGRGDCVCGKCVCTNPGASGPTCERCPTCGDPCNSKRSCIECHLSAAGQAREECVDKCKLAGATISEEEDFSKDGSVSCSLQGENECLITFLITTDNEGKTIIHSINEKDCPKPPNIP

| Binding Bmax (OD450) | EC50 | EC50 fold change from Ab1 | Binder |
| --- | --- | --- | --- |
| 0.7 OD450 | 14.7 nM | 67 fold | B4 |
| 0.6 OD450 | 76.6 nM | 306 fold | B5 |
| 0.9 OD450 | 140 nM | 562 fold | B6 |
| 1.5 OD450 | 198 nM | 827 fold | B7 |
| 0.7 OD450 | 111 nM | 444 fold | B8 |
| 0.7 OD450 | 368 nM | 1270 fold | B9 |
| 1.8 OD450 | 117 nM | 532 fold | B10 |
| 0.8 OD450 | 190 nM | 657 fold | B11 |
| 1.8 OD450 | 101 nM | 461 fold | B12 |
| 1.1 OD450 | 322 nM | 1110 fold | B13 |
| 1 OD450 | 184 nM | 633 fold | B14 |
| 0.6 OD450 | 75.3 nM | 260 fold | B15 |
| 1.1 OD450 | 43.6 nM | 182 fold | B16 |
| 0.6 OD450 | 85.9 nM | 344 fold | B17 |
| 0.6 OD450 | 133 nM | 458 fold | B18 |
| 0.6 OD450 | 129 nM | 517 fold | B19 |
| 1.2 OD450 | 128 nM | 584 fold | B20 |
| 1.3 OD450 | 619 nM | 2140 fold | B21 |
| 1.1 OD450 | 278 nM | 959 fold | B22 |
| 1.2 OD450 | 69.6 nM | 290 fold | B23 |
| 1 OD450 | 548 nM | 1890 fold | B24 |
| 0.8 OD450 | 45.2 nM | 181 fold | B25 |

Target: T1, Coil 10 heavy chain peptide for CD …
Assay: circular dichroism thermal denaturation at 222 nm, 150 µM total peptide

| Binder | Tm (melting temperature of the heterodimer) |
| --- | --- |
| B26 | 28.6 ° C. |

Target: not listed separately
Assay: circular dichroism thermal denaturation at 222 nm

| Binder | Tm (melting temperature of the heavy chain homodimer) | Tm (melting temperature of the light chain homodimer) |
| --- | --- | --- |
| QGASTSVDELQAEVDQLEDENYAIKTKLAQLRKKVEKLGSIPVS [Coil 148 heavy chain peptide for CD studies (VelB L24I/V28L)] | Tm=40.8 °C |  |
| QGASTSVDELQAEVDQLEDENYAIKTKVAQLRKKVEKLGSIPVS [Coil 10 heavy chain peptide for CD studies (VelB L24I)] | Tm=21.0 °C |  |
| QGASTSVDELQAEVDQLEDENYALKTKVAQLRKKVEKLGSIPVS [Vel heavy chain peptide for CD studies (VelB)] | Tm=23.3 °C |  |
| B26 |  | Tm=<20 °C |

Target: T2, recombinant human CD47
Assay: saturation binding ELISA
Remark: another data set of the same source

| EC50 | EC50 fold change from hB6H12.3 | Binder |
| --- | --- | --- |
| 2.55 nM |  | B27 |
| 494 nM | 194 fold | B28 |

Target: Antigen 1 (Ab1 target) expressed on HEK293 / HEK-293F cells
Assay: saturation binding FACS, HEK293 cells

Antigen 1 (Ab1 target) expressed on HEK293 / HEK-293F cells, sequence (P06756 31-1048, chain 1 of 2): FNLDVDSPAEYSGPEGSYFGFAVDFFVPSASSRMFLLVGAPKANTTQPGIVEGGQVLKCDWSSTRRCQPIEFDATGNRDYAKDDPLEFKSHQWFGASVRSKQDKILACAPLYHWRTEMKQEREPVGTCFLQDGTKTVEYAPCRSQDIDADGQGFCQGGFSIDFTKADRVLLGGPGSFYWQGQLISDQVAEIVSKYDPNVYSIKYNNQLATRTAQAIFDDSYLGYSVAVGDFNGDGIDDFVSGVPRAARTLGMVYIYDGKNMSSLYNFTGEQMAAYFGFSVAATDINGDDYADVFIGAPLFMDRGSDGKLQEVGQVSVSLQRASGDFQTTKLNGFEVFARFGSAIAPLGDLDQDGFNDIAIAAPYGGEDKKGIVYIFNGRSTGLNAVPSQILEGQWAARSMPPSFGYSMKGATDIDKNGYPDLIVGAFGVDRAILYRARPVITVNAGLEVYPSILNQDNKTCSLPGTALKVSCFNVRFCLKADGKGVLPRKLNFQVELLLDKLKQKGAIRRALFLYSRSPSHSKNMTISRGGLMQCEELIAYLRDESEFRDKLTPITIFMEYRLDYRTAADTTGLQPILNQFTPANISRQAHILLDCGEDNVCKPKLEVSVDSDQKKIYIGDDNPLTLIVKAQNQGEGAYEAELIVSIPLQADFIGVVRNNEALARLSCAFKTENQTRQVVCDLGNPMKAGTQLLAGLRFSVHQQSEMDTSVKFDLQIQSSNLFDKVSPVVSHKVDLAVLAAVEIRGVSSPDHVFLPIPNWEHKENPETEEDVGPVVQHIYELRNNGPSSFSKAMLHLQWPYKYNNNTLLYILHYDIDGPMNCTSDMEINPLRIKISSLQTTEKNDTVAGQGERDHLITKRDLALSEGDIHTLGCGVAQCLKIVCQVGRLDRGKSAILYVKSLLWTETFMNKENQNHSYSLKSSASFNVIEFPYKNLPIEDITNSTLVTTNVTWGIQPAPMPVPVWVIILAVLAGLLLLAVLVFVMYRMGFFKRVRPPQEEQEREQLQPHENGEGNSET
Antigen 1 (Ab1 target) expressed on HEK293 / HEK-293F cells, sequence (P18564 22-788, chain 2 of 2, further chain): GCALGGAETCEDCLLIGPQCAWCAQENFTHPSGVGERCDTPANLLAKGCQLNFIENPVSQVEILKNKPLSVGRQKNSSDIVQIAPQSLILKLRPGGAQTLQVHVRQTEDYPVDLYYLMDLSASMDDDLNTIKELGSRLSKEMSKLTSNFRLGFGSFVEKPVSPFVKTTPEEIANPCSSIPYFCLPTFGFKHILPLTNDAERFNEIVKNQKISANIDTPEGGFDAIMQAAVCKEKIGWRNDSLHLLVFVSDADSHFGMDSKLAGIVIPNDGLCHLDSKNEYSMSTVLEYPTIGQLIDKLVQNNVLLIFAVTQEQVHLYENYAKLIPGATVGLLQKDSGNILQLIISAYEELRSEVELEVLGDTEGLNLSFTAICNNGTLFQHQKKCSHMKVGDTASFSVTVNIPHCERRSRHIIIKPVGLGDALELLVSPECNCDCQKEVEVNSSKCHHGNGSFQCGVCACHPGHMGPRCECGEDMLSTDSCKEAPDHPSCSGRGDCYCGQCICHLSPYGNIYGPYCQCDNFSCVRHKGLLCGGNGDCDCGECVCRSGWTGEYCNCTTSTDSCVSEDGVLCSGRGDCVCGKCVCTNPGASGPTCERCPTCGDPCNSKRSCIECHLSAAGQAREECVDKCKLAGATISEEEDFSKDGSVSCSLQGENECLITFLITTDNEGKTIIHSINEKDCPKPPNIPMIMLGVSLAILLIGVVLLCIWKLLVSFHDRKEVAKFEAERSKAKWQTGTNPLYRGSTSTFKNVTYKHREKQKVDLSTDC

| EC50 | EC50 fold change from Ab1 | Binder |
| --- | --- | --- |
| 2.6 nM | 19 fold | B5 |
| 132 nM | 943 fold | B6 |
| 9.5 nM | 68 fold | B8 |
| 7.5 nM | 54 fold | B9 |
| 38.4 nM | 274 fold | B11 |
| 144 nM | 1030 fold | B13 |
| 152 nM | 1090 fold | B14 |
| 2.1 nM | 15 fold | B15 |
| 14.5 nM | 104 fold | B17 |
| 2.8 nM | 20 fold | B18 |
| 14.1 nM | 10 fold | B19 |
| 9.1 nM | 65 fold | B21 |
| 59.3 nM | 423 fold | B22 |
| 42.9 nM | 306 fold | B24 |
| 16.8 nM | 120 fold | B25 |

Target: T2, recombinant human CD47
Assay: saturation binding ELISA
Remark: another data set of the same source

| EC50 | Binder |
| --- | --- |
| 2.55 nM | B27 |
